Kd data for 16 molecules are collected here from US20250154283A1 (published 2025).

Assay [1] deals with T1, biotinylated human VWF cysteine knot (CK) domain construct (human, UniProt P04275 2724-2813, biotinylated in vitro (BirA) on the biotinylation tag; one N-glycan).
T1 construct: Expressed in HEK293 EBNA cells; disulfide-linked homodimer; also called human VWF CK; human VWF CK domain; not shown: in vitro biotinylation tag, HRV-3C site and 3 VWF residues before the CK domain
Description: SPR, scFv captured via anti-SV5, CK domain injected, pH 5.5, apparent Kd.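 Also: scFvs from crude yeast supernatants captured on chip-bound anti-SV5 antibody, Kd computed as koff divided by kon, dimeric CK construct likely makes affinity appear higher.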

For assay [2], the target named is T1, biotinylated human VWF cysteine knot …. Kind of assay: SPR, scFv captured via anti-SV5, CK domain injected, pH 7.4, apparent Kd.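 Also: scFvs from crude yeast supernatants printed on an amine-coupled anti-SV5 lawn, Kd computed as koff over kon, likely overestimating affinity because the CK construct is dimeric.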 On the technique in general: Surface plasmon resonance follows binding to a sensor surface in real time, without labels.
The target of assay [3] is T2, biotinylated cynomolgus monkey VWF cysteine knot (CK) domain construct (cynomolgus monkey, biotinylated in vitro (BirA) on the biotinylation tag; one N-glycan).
T2 construct: Expressed in HEK293 EBNA cells; disulfide-linked homodimer; also called cyno VWF CK; cyno VWF CK domain; not shown: in vitro biotinylation tag, HRV-3C site and 3 VWF residues before the CK domain
T2 chain: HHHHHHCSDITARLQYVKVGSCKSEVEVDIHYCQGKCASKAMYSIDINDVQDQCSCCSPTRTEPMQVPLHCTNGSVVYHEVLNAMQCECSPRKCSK
The assay is described as above.

B1: 4761_Lib8_scFv (scFv)
scFv: EVQLVESGGGLVQPGRSLRLSCAASGFTFSSDTMHWVRQAPGKGLEWVSAISSSGDHTDYADSVEGRFTISRDNAKNSLYLQMNSLRAEDTAVYYCAREGLRGYYFDYWGQGTLVTVSSSGGSTITSYNVYYTKLSSSGTDIQMTQSPSSLSASVGDRVTITCRASQGISGHLAWYQQKPGKAPKLLIYAASALQSGVPSRFSGSGSGTDFTLTISSLQPEDVATYYCQQSHSLPWTFGGGTKVEIK
notes: VH-linker-VL; not shown: C-terminal 3xFLAG and SV5 tags
On to B1, for which the values for the Kd in assay [1], in assay [2] and in assay [3] were 1.33 nM, 7.56 nM and 2.67 nM, respectively.

B2: 5662_Lib8_scFv (scFv)
scFv: EVQLVESGGGLVQPGRSLRLSCAASGFNFHNYDMHWVRQAPGKGLEWVSAIDISGQSTDYADSVEGRFTISRDNAKNSLYLQMNSLRAEDTAVYYCAREGWYGGVFDYWGQGTLVTVSSSGGSTITSYNVYYTKLSSSGTDIQMTQSPSSLSASVGDRVTITCRASQDIANWLAWYQQKPGKAPKLLIYGASESGVGVPSRFSGSGSGTDFTLTISSLQPEDVATYYCQQSLTMKTFGGGTKVEIK
notes: as for B1
For the molecule B2, the results for the Kd in assay [1], in assay [2] and in assay [3] were 0.687 nM, 4.31 nM and 1.36 nM, respectively.

B3: Lib1_P1_G3_scFv (scFv)
scFv: QVQLVQSGAEVKKPGASVKVSCKVSGYTSRQYIHWVRQAPGKGLEWMGWVTPIFGTTNYAQKFQGRVTMTEDTSTDTAYMELSSLKSEDTAVYYCAREWTGTTAFDIWGQGTLVTVSSSGGSTITSYNVYYTKLSSSGTDIQMTQSPSSVSASVGDRVTITCRASQDIGHYLAWYQQKPGKAPKLLIYAASNRASGVPSRFSGSGSGTDFTLTISSLQPEDFANYYCQQGYSAPYGFGGGTKVEIK
notes: as for B1
Consider B3, for which the values for the Kd in assay [1], in assay [2] and in assay [3] were 0.029 nM, 0.073 nM and 0.032 nM, respectively.

B4: 17561_Lib6_scFv (scFv)
scFv: EVQLVQSGAEVKKPGASVKVSCKASGYTFTDLPISWVRQAPGQGLEWMGWINPYTGDTNYAQKLQGRGTMTTDPSTSTAYMELRSLRSDDTAVYYCARDGVILGYYYYYGMDVWGQGTTVTVSSSGGSTITSYNVYYTKLSSSGTESALTQPASVSGSPGQSITISCTGTDLGSKSVSWYQQHPGKAPKLMIYDNFNRPSGVSNRFSGSKSGNTASLTISGLQAEDEADYYCSSRTVSGTYVFGGGTKLTVL
notes: as for B1
In the case of B4, the Kd in assay [1] amounted to 1.79 nM; in assay [2], 9.25 nM; in assay [3], 5.24 nM.

B5: 69_Lib8_scFv (scFv)
scFv: EVQLVESGGGLVQPGRSLRLSCAASAFTFSNYDMHWVRQAPGKGLEWVSAISGSGDTSDYADSVEGRFTISRDNAKNSLYLQMNSLRAEDTAVYYCVRASWYGTFFDYWGQGTLVTVSSSGGSTITSYNVYYTKLSSSGTDIQMTQSPSSLSASVGDRVTITCRASQSVSGWLAWYQQKPGKAPKLLIYGTSTLQSGVPSRFSGSGSGTDFTLTISSLQPEDVATYYCQQSYSAPYTFGGGTKVEIK
notes: as for B1
As for B5, the figures for the Kd in assay [1], in assay [2] and in assay [3] were 0.859 nM, 3.7 nM and 1.05 nM, respectively.

B6: Lib6_P3_A4_scFv (scFv)
scFv: QVQLVQSGAEVKKPGASVKVSCKVSGDTLSNYAIHWVRQAPGKGLEWMGGINPNAGTTIYAQKFQGRVTMTEDTSTDTAYMELSSLKSEDTAVYYCARDSSSWCPVGYYYYYMDVWGKGTTVTVSSSGGSTITSYNVYYTKLSSSGTDIQMTQSPSSVSASVGDRVTITCRASQSIGDFLAWYQQKPGKAPKLLIYDASHLQTGVPSRFSGSGSGTDFTLTISSLQPEDFANYYCQQTSTIPPTFGGGTKVEIK
notes: as for B1
As to B6, the Kd in assay [1] was 0.52 nM; in assay [2], 4.97 nM; in assay [3], 3.46 nM.

B7: Lib1_P1_A5_scFv (scFv)
scFv: B6 scFv
notes: as for B1
In the case of B7, the figures for the Kd in assay [1], in assay [2] and in assay [3] were 5.02 nM, 6.37 nM and 1.74 nM, respectively.

B8: Lib4_P2_D1_scFv (scFv)
scFv: B6 scFv
notes: as for B1
On to B8, for which the Kd in assay [1] is 0.984 nM; in assay [2], 5.02 nM; in assay [3] it was 0.517 nM.

B9: 76_Lib4_scFv (scFv)
scFv: QVQLQESGPGLVKPSQTLSLTCTVSGVSISNHYWSWIRQPPGKGLEWIGYIDESGSTDYNPSLKSRVTMSVDTSKNQFSLKVNSVTAADTAVYYCARVSWGYYAMDVWGQGTTVTVSSSGGSTITSYNVYYTKLSSSGTEIVMTQSPATLSLSPGERATLSCRASQGVSGHLAWYQQKPGQAPRLLIYETSKRATGIPARFSGSGSGTDFTLTISSLEPEDFAVYYCQQYNDYPLGFGGGTKVEIK
notes: as for B1
Take B9: the Kd in assay [1] was determined as 0.366 nM; in assay [2], 3.91 nM; in assay [3], 1.29 nM.

B10: 1675_Lib1_scFv (scFv)
scFv: QVQLVQSGAEVKKPGASVKVSCKVSGVTLTSSAISWVRQAPGKGLEWMGGITPIFGTPIYAQKFQGRVTMTEDTSTDTAYMELSSLKSEDTAVYYCATDYGYPFWAFDIWGQGTMVTVSSSGGSTITSYNVYYTKLSSSGTDIQMTQSPSSVSASVGDRVTITCRASQGIYSALAWYQQKPGKAPKLLIYESSKRPSGVPSRFSGSGSGTDFTLTISSLQPEDFANYYCEQYASSPPTFGGGTKVEIK
notes: as for B1
For the molecule B10, the Kd worked out at 0.03 nM in assay [1], 0.077 nM in assay [2] and 0.052 nM in assay [3].

B11: 4675_Lib4_scFv (scFv)
scFv: QVQLQESGPGLVKPSQTLSLTCTVSGFSLTSHPEGVNWIRQPPGKGLEWIGYIAHSGTTDYNPSLKSRVTMSVDTSKNQFSLKVNSVTAADTAVYYCARAYGDSDAFDIWGQGTMVTVSSSGGSTITSYNVYYTKLSSSGTEIVMTQSPATLSLSPGERATLSCRASQSIGRNLAWYQQKPGQAPRLLIYGASKRVTGIPARFSGSGSGTDFTLTISSLEPEDFAVYYCQQYSTWPTFGGGTKVEIK
notes: as for B1
As to B11, the Kd in assay [1] is 13.6 nM; in assay [2], 4.26 nM; in assay [3], 2.42 nM.

B12: Lib1_P1_A9_scFv (scFv)
scFv: QVQLVQSGAEVKKPGASVKVSCKVSGDTLSSYGIHWVRQAPGKGLEWMGGSIPSFGTAIYAQKFQGRVTMTEDTSTDTAYMELSSLKSEDTAVYYCTSEGPWLPFFSFDYWGQGTLVTVSSSGGSTITSYNVYYTKLSSSGTDIQMTQSPSSVSASVGDRVTITCRASQGISRNLAWYQQKPGKAPKLLIYKASSLASGVPSRFSGSGSGTDFTLTISSLQPEDFANYYCQQSFSTPVTFGGGTKVEIK
notes: as for B1
For B12, the Kd amounted to 0.018 nM in assay [1], 0.051 nM in assay [2] and 0.205 nM in assay [3].

B13: 9312_Lib8_scFv (scFv)
scFv: EVQLVESGGGLVQPGRSLRLSCAASGFSLSTYDMHWVRQAPGKGLEWVSAISSSGDTRDYADSVEGRFTISRDNAKNSLYLQMNSLRAEDTAVYYCARAFWGGDAFDIWGQGTMVTVSSSGGSTITSYNVYYTKLSSSGTDIQMTQSPSSLSASVGDRVTITCRASQTIGYWLAWYQQKPGKAPKLLIYGASTLEGGVPSRFSGSGSGTDFTLTISSLQPEDVATYYCQHSYSAPPTFGGGTKVEIK
notes: as for B1
Turning to B13, the values for the Kd in assay [1], in assay [2] and in assay [3] were 21.6 nM, 6.56 nM and 1.8 nM, respectively.

B14: 15244_Lib8_scFv (scFv)
scFv: EVQLVESGGGLVQPGRSLRLSCAASGFTFADYDMHWVRQAPGKGLEWVSATSSHGVTTDYADSVEGRFTISRDNAKNSLYLQMNSLRAEDTAVYYCARGAWSGIAARQYIDYWGQGTLVTVSSSGGSTITSYNVYYTKLSSSGTDIQMTQSPSSLSASVGDRVTITCRASQTIGYWLAWYQQKPGKAPKLLIYDASVPESGVPSRFSGSGSGTDFTLTISSLQPEDVATYYCQQSYSYPLTFGGGTKVEIK
notes: as for B1
Consider B14, for which the Kd in assay [1] was 1.05 nM; in assay [2] it was 3.05 nM; in assay [3], 1.91 nM.

B15: Lib1_P1_F10_scFv (scFv)
scFv: QVQLVQSGAEVKKPGASVKVSCKVSGYTFSSSGIHWVRQAPGKGLEWMGGIFPNFGTAIYAQKFQGRVTMTEDTSTDTAYMELSSLKSEDTAVYYCARESDFWSGSFTNWGQGTLVTVSSSGGSTITSYNVYYTKLSSSGTDIQMTQSPSSVSASVGDRVTITCRASRSIGNWLAWYQQKPGKAPKLLIYDAFNRASGVPSRFSGSGSGTDFTLTISSLQPEDFANYYCQQSYSTLPRYSFGGGTKVEIK
notes: as for B1
As to B15, the values for the Kd in assay [1], in assay [2] and in assay [3] were 15.3 nM, 4.97 nM and 1.5 nM, respectively.

B16: 27_Lib4_scFv (scFv)
scFv: QVQLQESGPGLVKPSQTLSLTCTVSGASFGDHYWSWIRQPPGKGLEWIGYIDATGSIDYNPSLKSRVTMSVDTSKNQFSLKVNSVTAADTAVYYCARVASYYYYMDVWGKGTTVTVSSSGGSTITSYNVYYTKLSSSGTEIVMTQSPATLSLSPGERATLSCRASQSITGSYLAWYQQKPGQAPRLLIYGASDRAPGIPARFSGSGSGTDFTLTISSLEPEDFAVYYCQQYGSFPYTFGGGTKVEIK
notes: as for B1
Turning to B16, the figures for the Kd in assay [1], in assay [2] and in assay [3] were 0.443 nM, 2.85 nM and 0.656 nM, respectively.
